Experimental data taken from patent publication US20260109745A1 (published 2026).
Ends that are not written are not given here.

Target: T1, NEO-101 antibody (chimeric NPC-1 antibody)
T1 construct: Chimeric (murine variable, human constant regions); Used unlabelled, biotinylated, FITC-labelled or coupled to Dynal beads depending on the assay; also called NPC-1C; NPC-1-C
Assay: ELISA: peptide-biotin on NEO-101 coated plate
Procedure: To solve the poor binding of peptides to 96 well plate, peptides were biotinylated using EZ-link micro NHS Biotinylation kit (Pierce Cat #21955), and labeling efficiency checked by dot blot (50%). […] The solution was blocked with 200 μl of 1% milk in TBS at RT for 20 min. Aliquots of 100 μl peptide-biotin (1 μg/ml) in 0.1% milk-TBS were added, and incubated at RT of 2 hr, followed by three washes with TBST. Streptavidin-HRP (100 μl of 1:2000 diluted in 1:10 diluted blocking buffer) was added, and the wells incubated at RT for 1 hr, followed by three washed. TMB was then added, and the wells were read at 450 nm. Positive controls for NPC-1C binding used 4B6-biotin. The results are shown in FIG. 11, which indicates biotinylated peptides bind to NPC-1C coated plate.

T1 sequence (VH, as listed by the source limits assumed, chain 1 of 2): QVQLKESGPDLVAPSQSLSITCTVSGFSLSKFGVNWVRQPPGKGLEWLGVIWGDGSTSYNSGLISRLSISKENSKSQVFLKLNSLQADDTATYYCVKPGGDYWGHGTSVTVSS
T1 sequence (VL, as listed by the source limits assumed, chain 2 of 2): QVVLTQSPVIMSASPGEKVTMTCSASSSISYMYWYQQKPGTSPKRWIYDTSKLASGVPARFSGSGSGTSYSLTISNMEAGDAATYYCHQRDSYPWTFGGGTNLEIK

B1: synthetic peptide 4-1-3-C11 (control peptide) (peptide)
peptide: YSHSVHAIEDNWSPRGGGGS
modifications: also: biotinylated (NHS kit) in direct ELISA, unlabelled in competition assays
notes: Negative control peptide
Question: Does B1 bind?
Answer: no binding (tested: 1 ug/ml)
